One series has as its target trypsin (Sus scrofa, UniProt P00761). Description: Trypsin digestion resistance of soluble peptide, RP-HPLC. The arrangement: purchased Sigma Aldrich 6567. It counts as in vitro ADME, porcine. Conditions: 30 minutes at 37.5° C.; for Resistance to Trypsin (500 U/ml): 500 U/ml trypsin, HPLC peak vs untreated peptide. The essentials: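 Read-out was RP-HPLC (C-18, water/acetonitrile with 0.1% TFA, 5-45% over 10 min) of peptide left after trypsin treatment. Digest: 12.5 μg peptide, 500 U/ml porcine trypsin, PBS, 37.5° C for 30 min, stopped by soybean trypsin inhibitor; samples then reduced (10 mM DTT) or left non-reduced.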

A short description of series [1]: Resistance to reduction by DTT, RP-HPLC. It counts as physicochemical. Conditions: for Resistance to DTT Reduction (10 mM): 10 mM DTT in PBS, room temperature, 30 minutes, HPLC peak vs untreated peptide. The procedure: Peptides were first suspended in 500 ul of ddH2O to a stock concentration of 2 mg/ml. Reactions were prepared by adding 12.5 ug of peptide from the stock solution to a 10 mM solution of DTT in PBS and allowed to incubate at room temperature for 30 minutes. Other reactions were prepared with 12.5 μg peptide with or without 500 U/ml pepsin in simulated gastric fluid (SGF; pH 1.05; […] sodium chloride in 0.7% (v/v) hydrochloric acid) and were incubated for 30 minutes at 37.5° C. Some reactions were quenched with a final concentration of 100 mM Tris base and 10 mM dithiothreitol (DTT). Some reactions were performed in all of the above components, including simulated gastric fluid, pepsin, Tris, and DTT (referred to as SPTD). Reversed phase HPLC (RP-HPLC) was run on samples using an Agilent 1260 HPLC equipped with a C-18 Poroshell 120B column. Sample were analyzed by a gradient method with a mobile phase of Solvent A (water with 0.1% TFA) and Solvent B (acetonitrile with 0.1% TFA). Solvent B was ramped up from 5%-45% of the mobile phase over a period of 10 minutes. Peptides were detected at an absorbance of 214 nm and 280 nm.
(§1) Peptides were first suspended in 500 μl of ddH2O to a stock concentration of 2 mg/ml. Reactions were prepared by adding 12.5 μg of peptide from the stock solution to a 10 mM solution of DTT in PBS and allowed to incubate at room temperature for 30 minutes. Other reactions were prepared with 12.5 μg peptide and 500 U/ml trypsin in 25 mM Tris/75 mM NaCl buffer (pH 7.0) and incubated for 30 minutes at 37.5° C. These reactions were then quenched with 5 μg of soybean trypsin inhibitor (I) and, in some cases, 10 mM dithiothreitol (DTT). Reversed phase HPLC (RP-HPLC) was run on samples using an Agilent 1260 HPLC equipped with a C-18 Poroshell 120B column. Sample were analyzed by a gradient method with a mobile phase of Solvent A (water with 0.1% TFA) and Solvent B (acetonitrile with 0.1% TFA). Solvent B was ramped up from 5%-45% of the mobile phase over a period of 10 minutes. For testing pepsin digestion resistance, reactions were prepared with 12.5 μg peptide with or without 500 U/ml pepsin in simulated gastric fluid (SGF; pH 1.05; […] sodium chloride in 0.7% (v/v) hydrochloric acid) and were incubated for 30 minutes at 37.5° C. For testing temperature resistance, peptides were incubated at 70° C., 75° C., or 100° C. for one hour in 0.5 mM PBS, pelleted, and then the supernatant was analyzed by HPLC.
This example illustrates peptide stability in biological conditions including in the presence of reducing agents, proteases, oxidative conditions, acidic conditions, and simulated gastric fluids. […] Various peptides were suspended in 500 μl of ddH2O at a stock concentration of 2 mg/ml. This was then diluted in accord with the reaction conditions to prevent adverse buffering effects. Reactions were prepared with 12.5 μg peptide dissolved in solution and, in some samples, additionally suspended in a 10 mM solution of DTT, simulated gastric fluid (pH 1.05; […] sodium chloride in 0.7% (v/v) hydrochloric acid), 500 U pepsin (5000 U/ml pepsin), 50 U trypsin (500 U/ml trypsin) with 1 mg/ml inhibitor in PBS, or a combination of any of these conditions. All protease reactions were incubated for 30 min at room temperature and then quenched. Pepsin reactions were quenched by adding Tris base to a final concentration of 0.075 M. Trypsin reactions were quenched by adding excess soybean trypsin inhibitor. RP-HPLC was then run on samples using an Agilent 1260 HPLC equipped with a C-18 Poroshell 120B column. Sample were analyzed by a gradient method with a mobile phase of Solvent A (water with 0.1% TFA) and Solvent B (acetonitrile with 0.1% TFA). Solvent B was ramped up from 5%-45% of the mobile phase over a period of 10 minutes.
FIG. 18 illustrates high performance liquid chromatograph (HPLC) traces of peptides in non-reducing (NR) conditions (solid trace) or in 10 mM DTT reducing (R) conditions (dashed trace). […]

For a further series, the target named is pepsin (Sus scrofa, UniProt P00791). In words: Pepsin digestion resistance in simulated gastric fluid, RP-HPLC. The format is in vitro ADME, porcine. More on the design: purchased Sigma Aldrich P7012. Conditions: 500 U/ml pepsin in SGF pH 1.05, 30 minutes at 37.5° C.; HPLC peak vs untreated peptide. The method in brief: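 Digestion resistance read by reversed-phase HPLC (C-18, 0.1% TFA, 5–45% acetonitrile over 10 min; 214/280 nm) after 12.5 μg peptide spent 30 min at 37.5 °C in pH 1.05 simulated gastric fluid, with or without 500 U/ml pepsin. Some samples quenched with Tris base and DTT.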

A short description of series [2]: Resistance to elevated temperature, HPLC. Conditions: HPLC peak vs untreated peptide; for Resistance to Temperature (75° C.): 75° C. for one hour; for Resistance to Temperature (100° C.): 100° C. for one hour. It counts as physicochemical. As to the method: as §1
This example illustrates peptide stability at high temperatures. Peptides were first suspended in 500 μl of ddH2O to a stock concentration of 2 mg/ml. Reactions were prepared by adding 6.25 μl of peptide from the stock solution with 95 μl ddH2O and incubated at room temperature, 70° C., or 100° C. for one hour in a Thermocycler. RP-HPLC was then run on samples using an Agilent 1260 HPLC equipped with a C-18 Poroshell 120B column. Sample were analyzed by a gradient method with a mobile phase of Solvent A (water with 0.1% TFA) and Solvent B (acetonitrile with 0.1% TFA). Solvent B was ramped up from 5%-45% of the mobile phase over a period of 10 minutes.

Chain of trypsin (P00761 9-231): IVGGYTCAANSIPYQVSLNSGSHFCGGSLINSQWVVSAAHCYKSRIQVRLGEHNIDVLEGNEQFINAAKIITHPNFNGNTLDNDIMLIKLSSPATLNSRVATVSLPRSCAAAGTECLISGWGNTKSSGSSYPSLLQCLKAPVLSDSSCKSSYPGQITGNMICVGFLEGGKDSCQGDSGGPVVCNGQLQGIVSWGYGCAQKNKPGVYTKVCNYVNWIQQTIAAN
Chain of pepsin (P00791 60-385): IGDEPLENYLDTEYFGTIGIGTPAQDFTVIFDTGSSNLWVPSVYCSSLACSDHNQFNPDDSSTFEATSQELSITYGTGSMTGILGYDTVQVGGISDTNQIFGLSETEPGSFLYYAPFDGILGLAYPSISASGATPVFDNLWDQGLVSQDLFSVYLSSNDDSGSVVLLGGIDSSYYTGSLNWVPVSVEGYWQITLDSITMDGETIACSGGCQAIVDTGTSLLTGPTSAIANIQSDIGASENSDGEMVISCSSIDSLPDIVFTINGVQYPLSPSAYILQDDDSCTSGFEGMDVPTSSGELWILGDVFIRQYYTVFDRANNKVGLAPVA

Regarding “1 (GSDCLPHLRRCRADNDCCGRRCRRRGTNAERRCR) [compound 1]”, the “Resistance to Trypsin (500 U/ml)” value with trypsin was “Moderate (A peptide classified as medium indicates that about half (between 25% and 75%) of the HPLC peak of the treated peptide disappeared as compared to the HPLC peak of the untreated peptide)”. Also, the “Resistance to DTT Reduction (10 mM)” value in series [1] is “Low (A peptide classified as low indicates that the majority (over 75%) of the HPLC peak of the treated peptide disappeared as compared to the HPLC peak of the untreated peptide)”.

Turning to “4 (GSGDCLPHLKRCKENNDCCSKKCKRRGANPEKRCR) [compound 4]”, the “Resistance to Trypsin (500 U/ml)” value with trypsin is given as “Low (A peptide classified as low indicates that the majority (over 75%) of the HPLC peak of the treated peptide disappeared as compared to the HPLC peak of the untreated peptide)”. Moreover, the “Resistance to Pepsin (500 U/ml)” value with pepsin is on record as “High (A peptide classified as high indicates that the majority (at least 75%) of the HPLC peak of the treated peptide is still present as compared to the HPLC peak of the untreated peptide)”. Besides, the “Resistance to DTT Reduction (10 mM)” value in series [1] is “Low (A peptide classified as low indicates that the majority (over 75%) of the HPLC peak of the treated peptide disappeared as compared to the HPLC peak of the untreated peptide)”. In addition, in series [2], the “Resistance to Temperature (75° C.)” value is reported as “High (A peptide classified as high indicates that the majority (at least 75%) of the HPLC peak of the treated peptide is still present as compared to the HPLC peak of the untreated peptide)” and the “Resistance to Temperature (100° C.)” value is recorded as “Low (A peptide classified as low indicates that the majority (over 75%) of the HPLC peak of the treated peptide disappeared as compared to the HPLC peak of the untreated peptide)”.

For the substance “7 (GSDRDSCIDKSRCSKYGYYQECQDCCKKAGHNGGTCMFFKCKCA) [compound 7]”, in the series with trypsin, the “Resistance to Trypsin (500 U/ml)” value is given as “Low (A peptide classified as low indicates that the majority (over 75%) of the HPLC peak of the treated peptide disappeared as compared to the HPLC peak of the untreated peptide)”. Besides, in the series with pepsin, the “Resistance to Pepsin (500 U/ml)” value was “High (A peptide classified as high indicates that the majority (at least 75%) of the HPLC peak of the treated peptide is still present as compared to the HPLC peak of the untreated peptide)”. Besides, the “Resistance to DTT Reduction (10 mM)” value in series [1] is recorded as “Low (A peptide classified as low indicates that the majority (over 75%) of the HPLC peak of the treated peptide disappeared as compared to the HPLC peak of the untreated peptide)”. In series [2], the “Resistance to Temperature (75° C.)” value is listed as “High (A peptide classified as high indicates that the majority (at least 75%) of the HPLC peak of the treated peptide is still present as compared to the HPLC peak of the untreated peptide)” and the “Resistance to Temperature (100° C.)” value is “High (A peptide classified as high indicates that the majority (at least 75%) of the HPLC peak of the treated peptide is still present as compared to the HPLC peak of the untreated peptide)”.

Take “9 (GSQFCGTNGKPCVNGQCCGALRCVVTYHYADGVCLKMNP) [compound 9]”: the “Resistance to Trypsin (500 U/ml)” value in the series with trypsin is “Moderate (A peptide classified as medium indicates that about half (between 25% and 75%) of the HPLC peak of the treated peptide disappeared as compared to the HPLC peak of the untreated peptide)”. In the series with pepsin, the “Resistance to Pepsin (500 U/ml)” value is given as “High (A peptide classified as high indicates that the majority (at least 75%) of the HPLC peak of the treated peptide is still present as compared to the HPLC peak of the untreated peptide)”. Moreover, the “Resistance to DTT Reduction (10 mM)” value in series [1] is reported as “Low (A peptide classified as low indicates that the majority (over 75%) of the HPLC peak of the treated peptide disappeared as compared to the HPLC peak of the untreated peptide)”. In series [2], the “Resistance to Temperature (75° C.)” value is “High (A peptide classified as high indicates that the majority (at least 75%) of the HPLC peak of the treated peptide is still present as compared to the HPLC peak of the untreated peptide)” and the “Resistance to Temperature (100° C.)” value is “Low (A peptide classified as low indicates that the majority (over 75%) of the HPLC peak of the treated peptide disappeared as compared to the HPLC peak of the untreated peptide)”.

For “26 (GSVGCEECPMHCKGKNANPTCDDGVCNCNV) [compound 26]”, in the series with trypsin, the “Resistance to Trypsin (500 U/ml)” value was “Moderate (A peptide classified as medium indicates that about half (between 25% and 75%) of the HPLC peak of the treated peptide disappeared as compared to the HPLC peak of the untreated peptide)”. Moreover, the “Resistance to DTT Reduction (10 mM)” value in series [1] was “Low (A peptide classified as low indicates that the majority (over 75%) of the HPLC peak of the treated peptide disappeared as compared to the HPLC peak of the untreated peptide)”.

On to “40 (GSPDEYIERAKECCKKGDIQCCLRYFEESGDPNVMLICAFCP) [compound 40]”, for which the “Resistance to DTT Reduction (10 mM)” value in series [1] is on record as “Low (A peptide classified as low indicates that the majority (over 75%) of the HPLC peak of the treated peptide disappeared as compared to the HPLC peak of the untreated peptide)”.

For the substance “41 (GSPDEYIERAKECCKKGDIQCCLRYFEESGDPNVMLICLACP) [compound 41]”, the “Resistance to DTT Reduction (10 mM)” value in series [1] is on record as “Low (A peptide classified as low indicates that the majority (over 75%) of the HPLC peak of the treated peptide disappeared as compared to the HPLC peak of the untreated peptide)”.

For the substance “42 (GSFGLYDNQCATSDACSAICKYWTGSGQGKCQNNQCRCY) [compound 42]”, in series [1], the “Resistance to DTT Reduction (10 mM)” value is “Low (A peptide classified as low indicates that the majority (over 75%) of the HPLC peak of the treated peptide disappeared as compared to the HPLC peak of the untreated peptide)”.

For the substance “44 (GSPDEYIERAKECCKKQDIQCCLRIFDESGDPNVMLICLFCW) [compound 44]”, the “Resistance to DTT Reduction (10 mM)” value in series [1] was “Moderate (A peptide classified as medium indicates that about half (between 25% and 75%) of the HPLC peak of the treated peptide disappeared as compared to the HPLC peak of the untreated peptide)”.

In the case of “GSDCLPHLRRCRADNDCCGRRCRRRGTNAERRCR [SEQ ID NO: 1]”, the “resistance to trypsin digestion (in words)” value with trypsin (500 U/ml trypsin (50 U per reaction), HPLC) is given as “partially resistant”. Also, the “resistance to reduction by DTT (in words)” value in series [1] (10 mM DTT, HPLC vs non-reduced peptide) is reported as “not resistant”.

These data come from patent US20190375786A1, “STABLE PEPTIDES AND METHODS OF USE THEREOF” (Fred Hutchinson Cancer Research Center, priority 2016, published 2019).
